For one test, the target named is murine CD1a (mouse). Nature of the test: flow cytometry on mouse thymocytes, K-S statistics.
In another test the target is murine CD1d (mouse) (UniProt P11609). The experiment in a line: flow cytometry on mouse thymocytes, K-S statistics. A general note: A flow cytometer gives signals particle by particle.
Sequence of murine CD1d (mouse) (P11609 22-336): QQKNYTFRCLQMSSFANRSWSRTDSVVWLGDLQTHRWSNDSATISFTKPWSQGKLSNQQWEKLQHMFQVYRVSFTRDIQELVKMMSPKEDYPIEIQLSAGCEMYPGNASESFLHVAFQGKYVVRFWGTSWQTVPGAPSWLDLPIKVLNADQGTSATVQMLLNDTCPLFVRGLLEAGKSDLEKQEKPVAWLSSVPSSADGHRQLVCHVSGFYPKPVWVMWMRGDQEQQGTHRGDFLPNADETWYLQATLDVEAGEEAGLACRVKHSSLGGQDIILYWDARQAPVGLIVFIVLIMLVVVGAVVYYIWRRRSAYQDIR

For “Positive control (mouse anti-human CD1a-FITC) (antibody)”, the D-value with murine CD1a (mouse) and with murine CD1d (mouse) was 0.03 each time.

The record behind these values is US20060257397A1.
